Data from PMC9682848.

Target: lamprey serum spherical lectin (LSSL), native, from lamprey serum (Lampetra japonica (endogenous in lamprey serum))
Assay: cryo-EM structure; native LSSL purified from serum, 2 μg/μL, vitrified; Titan Krios 300 kV; RELION 3.1

stoichiometry N: 3
Substance: lamprey serum spherical lectin (LSSL), native, from lamprey serum (natural protein)
